Measured values: PMC8097335, “A High‐Affinity Calmodulin‐Binding Site in the CyaA Toxin Translocation Domain is Essential for Invasion of Eukaryotic Cells” (Advanced Science, 2021)

Target: T1, calmodulin (calcium-loaded: holo-CaM) (UniProt P0DP23)
T1 construct: also called apo-CaM (without calcium)
Assay: other fluorescence titration + ITC
Conditions: both partners purified

Binder	fold decrease of affinity for CaM against P454 [fold]	Kd [µM]
ASAHWGQRALQGAQAVAAAQRLVSAAALMTQ [P454 H477S-I479A peptide]	~20	
ASAHAGQRAAQGAQAVAAAQRLVHAIALMTQ [P454 W458A-L463A peptide]	4	
ASAHWGQEALQGAQAVAAAQELVHAIALMTQ (also called TAMRA-P454 R12E) [P454 R12E peptide (P454 with R461E and R474E)]		22.7
ASAHWGQRALQGAQAVAAAQRAVSAAALMTQ [P454 L475A-H477S-I479A peptide]	~20	
